Literature values as cited in paper PMC11759867.

Target: MD2 (Homo sapiens) (UniProt Q9Y6Y9)
UniProt Q9Y6Y9, sequence (Q9Y6Y9 19-160): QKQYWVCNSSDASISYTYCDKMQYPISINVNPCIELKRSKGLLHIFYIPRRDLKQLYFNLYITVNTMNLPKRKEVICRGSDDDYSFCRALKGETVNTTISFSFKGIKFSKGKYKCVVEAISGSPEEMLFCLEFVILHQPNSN

Kd: 0.302 µM
Substance: CIRP 106-125 (from UniProt Q14011)
